According to PMC7326016, “Structural Studies of Glutamate Dehydrogenase (Isoform 1) From Arabidopsis thaliana, an Important Enzyme at the Branch-Point Between Carbon and Nitrogen Metabolism” (Frontiers in Plant Science, 2020):

Biological target: the molecule itself
Assay: crystal structure; two crystal structures of AtGDH1 (apo, 2.59 Å; complex with NAD+, 2.03 Å; 2OG in one subunit of the latter); one homohexamer in the asymmetric unit, space group P212121; inter-subunit contacts analysed with PISA

B1: Glutamate dehydrogenase 1 from Arabidopsis thaliana (AtGDH1), homohexamer of α subunits (enzyme, A. thaliana, UniProt Q43314 1-411, looked up)
chain: MNALAATNRNFKLAARLLGLDSKLEKSLLIPFREIKVECTIPKDDGTLASFVGFRVQHDNARGPMKGGIRYHPEVDPDEVNALAQLMTWKTAVAKIPYGGAKGGIGCDPSKLSISELERLTRVFTQKIHDLIGIHTDVPAPDMGTGPQTMAWILDEYSKFHGYSPAVVTGKPIDLGGSLGRDAATGRGVMFGTEALLNEHGKTISGQRFVIQGFGNVGSWAAKLISEKGGKIVAVSDITGAIKNKDGIDIPALLKHTKEHRGVKGFDGADPIDPNSILVEDCDILVPAALGGVINRENANEIKAKFIIEAANHPTDPDADEILSKKGVVILPDIYANSGGVTVSYFEWVQNIQGFMWEEEKVNDELKTYMTRSFKDLKEMCKTHSCDLRMGAFTLGVNRVAQATILRGWGA
notes: Glutamate dehydrogenase 1 (AtGDH1, α subunit), Arabidopsis thaliana ecotype Col-0, locus At5g18170.1, UniProt Q43314; Cloned into pMCSG68; the His tag was cut off with TEV protease; also called glutamate dehydrogenase (isoform 1); source: E. coli BL21-Gold (DE3), purified (HisTrap, TEV cleavage, second HisTrap, Superdex 200 SEC)
- stoichiometry N: 6
